Laboratory results as given in US20060263345A1, “Butyrylcholinesterase variant polypeptides with increased catalytic efficiency and methods of use” (priority 2003, published 2006).
“Also recorded” adds a separate entry of the source.

B1: Y332S (protein)
chain: EDDIIIATKNGKVRGMNLTVFGGTVTAFLGIPYAQPPLGRLRFKKPQSLTKWSDIWNATKYANSCCQNIDQSFPGFHGSEMWNPNTDLSEDCLYLNVWIPAPKPKNATVLIWIYGGGFQTGTSSLHVYDGKFLARVERVIVVSMNYRVGALGFLALPGNPEAPGNMGLFDQQLALQWVQKNIAAFGGNPKSVTLFGESAGAASVSLHLLSPGSHSLFTRAILQSGSFNAPWAVTSLYEARNRTLNLAKLTGCSRENETEIIKCLRNKDPQEILLNEAFVVPYGTPLSVNFGPTVDGDFLTDMPDILLELGQFKKTQILVGVNKDEGTAFLVSGAPGFSKDNNSIITRKEFQEGLKIFFPGVSEFGKESILFHYTDWVDDQRPENYREALGDVVGDYNFICPALEFTKKFSEWGNNAFFYYFEHRSSKLPWPEWMGVMHGYEIEFVFGLPLERRDNYTKAEEILSRSIVKRWANFAKYGNPNETQNNSTSWPVFKSTEQKYLTLNTESTRIMTKLRAQQCRFWTSFFPKVLEMTGNIDEAEWEWKAGFHRWNNYMMDWKNQFNDYTSKKESCVGL
modifications: Butyrylcholinesterase variant
B2: F227G (protein)
chain: EDDIIIATKNGKVRGMNLTVFGGTVTAFLGIPYAQPPLGRLRFKKPQSLTKWSDIWNATKYANSCCQNIDQSFPGFHGSEMWNPNTDLSEDCLYLNVWIPAPKPKNATVLIWIYGGGFQTGTSSLHVYDGKFLARVERVIVVSMNYRVGALGFLALPGNPEAPGNMGLFDQQLALQWVQKNIAAFGGNPKSVTLFGESAGAASVSLHLLSPGSHSLFTRAILQSGSGNAPWAVTSLYEARNRTLNLAKLTGCSRENETEIIKCLRNKDPQEILLNEAFVVPYGTPLSVNFGPTVDGDFLTDMPDILLELGQFKKTQILVGVNKDEGTAFLVYGAPGFSKDNNSIITRKEFQEGLKIFFPGVSEFGKESILFHYTDWVDDQRPENYREALGDVVGDYNFICPALEFTKKFSEWGNNAFFYYFEHRSSKLPWPEWMGVMHGYEIEFVFGLPLERRDNYTKAEEILSRSIVKRWANFAKYGNPNETQNNSTSWPVFKSTEQKYLTLNTESTRIMTKLRAQQCRFWTSFFPKVLEMTGNIDEAEWEWKAGFHRWNNYMMDWKNQFNDYTSKKESCVGL
modifications: Butyrylcholinesterase variant
B3: Y332M (protein)
chain: EDDIIIATKNGKVRGMNLTVFGGTVTAFLGIPYAQPPLGRLRFKKPQSLTKWSDIWNATKYANSCCQNIDQSFPGFHGSEMWNPNTDLSEDCLYLNVWIPAPKPKNATVLIWIYGGGFQTGTSSLHVYDGKFLARVERVIVVSMNYRVGALGFLALPGNPEAPGNMGLFDQQLALQWVQKNIAAFGGNPKSVTLFGESAGAASVSLHLLSPGSHSLFTRAILQSGSFNAPWAVTSLYEARNRTLNLAKLTGCSRENETEIIKCLRNKDPQEILLNEAFVVPYGTPLSVNFGPTVDGDFLTDMPDILLELGQFKKTQILVGVNKDEGTAFLVMGAPGFSKDNNSIITRKEFQEGLKIFFPGVSEFGKESILFHYTDWVDDQRPENYREALGDVVGDYNFICPALEFTKKFSEWGNNAFFYYFEHRSSKLPWPEWMGVMHGYEIEFVFGLPLERRDNYTKAEEILSRSIVKRWANFAKYGNPNETQNNSTSWPVFKSTEQKYLTLNTESTRIMTKLRAQQCRFWTSFFPKVLEMTGNIDEAEWEWKAGFHRWNNYMMDWKNQFNDYTSKKESCVGL
modifications: Butyrylcholinesterase variant
B4: F227A (protein)
chain: EDDIIIATKNGKVRGMNLTVFGGTVTAFLGIPYAQPPLGRLRFKKPQSLTKWSDIWNATKYANSCCQNIDQSFPGFHGSEMWNPNTDLSEDCLYLNVWIPAPKPKNATVLIWIYGGGFQTGTSSLHVYDGKFLARVERVIVVSMNYRVGALGFLALPGNPEAPGNMGLFDQQLALQWVQKNIAAFGGNPKSVTLFGESAGAASVSLHLLSPGSHSLFTRAILQSGSANAPWAVTSLYEARNRTLNLAKLTGCSRENETEIIKCLRNKDPQEILLNEAFVVPYGTPLSVNFGPTVDGDFLTDMPDILLELGQFKKTQILVGVNKDEGTAFLVYGAPGFSKDNNSIITRKEFQEGLKIFFPGVSEFGKESILFHYTDWVDDQRPENYREALGDVVGDYNFICPALEFTKKFSEWGNNAFFYYFEHRSSKLPWPEWMGVMHGYEIEFVFGLPLERRDNYTKAEEILSRSIVKRWANFAKYGNPNETQNNSTSWPVFKSTEQKYLTLNTESTRIMTKLRAQQCRFWTSFFPKVLEMTGNIDEAEWEWKAGFHRWNNYMMDWKNQFNDYTSKKESCVGL
modifications: Butyrylcholinesterase variant
B5: V331L (protein)
chain: EDDIIIATKNGKVRGMNLTVFGGTVTAFLGIPYAQPPLGRLRFKKPQSLTKWSDIWNATKYANSCCQNIDQSFPGFHGSEMWNPNTDLSEDCLYLNVWIPAPKPKNATVLIWIYGGGFQTGTSSLHVYDGKFLARVERVIVVSMNYRVGALGFLALPGNPEAPGNMGLFDQQLALQWVQKNIAAFGGNPKSVTLFGESAGAASVSLHLLSPGSHSLFTRAILQSGSFNAPWAVTSLYEARNRTLNLAKLTGCSRENETEIIKCLRNKDPQEILLNEAFVVPYGTPLSVNFGPTVDGDFLTDMPDILLELGQFKKTQILVGVNKDEGTAFLLYGAPGFSKDNNSIITRKEFQEGLKIFFPGVSEFGKESILFHYTDWVDDQRPENYREALGDVVGDYNFICPALEFTKKFSEWGNNAFFYYFEHRSSKLPWPEWMGVMHGYEIEFVFGLPLERRDNYTKAEEILSRSIVKRWANFAKYGNPNETQNNSTSWPVFKSTEQKYLTLNTESTRIMTKLRAQQCRFWTSFFPKVLEMTGNIDEAEWEWKAGFHRWNNYMMDWKNQFNDYTSKKESCVGL
modifications: Butyrylcholinesterase variant
B6: Y332P (protein)
chain: EDDIIIATKNGKVRGMNLTVFGGTVTAFLGIPYAQPPLGRLRFKKPQSLTKWSDIWNATKYANSCCQNIDQSFPGFHGSEMWNPNTDLSEDCLYLNVWIPAPKPKNATVLIWIYGGGFQTGTSSLHVYDGKFLARVERVIVVSMNYRVGALGFLALPGNPEAPGNMGLFDQQLALQWVQKNIAAFGGNPKSVTLFGESAGAASVSLHLLSPGSHSLFTRAILQSGSFNAPWAVTSLYEARNRTLNLAKLTGCSRENETEIIKCLRNKDPQEILLNEAFVVPYGTPLSVNFGPTVDGDFLTDMPDILLELGQFKKTQILVGVNKDEGTAFLVPGAPGFSKDNNSIITRKEFQEGLKIFFPGVSEFGKESILFHYTDWVDDQRPENYREALGDVVGDYNFICPALEFTKKFSEWGNNAFFYYFEHRSSKLPWPEWMGVMHGYEIEFVFGLPLERRDNYTKAEEILSRSIVKRWANFAKYGNPNETQNNSTSWPVFKSTEQKYLTLNTESTRIMTKLRAQQCRFWTSFFPKVLEMTGNIDEAEWEWKAGFHRWNNYMMDWKNQFNDYTSKKESCVGL
modifications: Butyrylcholinesterase variant

Assay: microtiter isotope tracer [3H]-cocaine hydrolysis assay of immobilized butyrylcholinesterase variants
Assay type: biochemical
Details: for cocaine hydrolysis activity compared to butyrylcholinesterase (in words): compared to human butyrylcholinesterase; for increase in cocaine hydrolysis activity relative to butyrylcholinesterase: compared to human butyrylcholinesterase SEQ ID NO: 44, approximate values; for Relative Activity of butyrylcholinesterase variants (WT = 1) with enhanced cocaine hydrolase activity: relative to wild-type = 1, catalytic efficiency (Vmax/Km), [3H]-cocaine microtiter assay
From the text: At the conclusion of the isotope tracer assay, an aliquot of the reaction mix is acidified in order to take advantage of the solubility difference between the product and the substrate at pH 3.0. […] Prospect, Ill.) while [3H]-cocaine is not.
The supernatants isolated from each of the butyrylcholinesterase variant library clones contains variable butyrylcholinesterase enzyme concentrations.
At least three approaches are used to either increase the assay sensitivity or the assay signal.
Km values for (−)-cocaine are determined at 37° C. Vmax and Km values are calculated using Sigma Plot (Jandel Scientific, San Rafael, Calif.). The number of active sites of butyrylcholinesterase is determined by the method of residual activity using echothiopate iodide or diisopropyl fluorophosphates as titrants, as described previously by Masson et al., Biochemistry 36: 2266-2277 (1997). […] Purified human butyrylcholinesterase is used as the standard for the ELISA quantitation assay. The catalytic rate constant, kcat, is calculated by dividing Vmax by the concentration of active sites.

Molecule	cocaine hydrolysis activity compared to butyrylcholinesterase (in words)	increase in cocaine hydrolysis activity relative to butyrylcholinesterase	Relative Activity of butyrylcholinesterase variants (WT = 1) with enhanced cocaine hydrolase activity	other results
B1	increased cocaine hydrolysis activity	–	–	cocaine hydrolysis activity compared to butyrylcholinesterase (in words) (listed as SEQ ID NO: 20): increased cocaine hydrolysis activity; cocaine hydrolysis activity compared to butyrylcholinesterase (in words) (listed as Y322S): enhanced cocaine hydrolase activity
B2	enhanced cocaine hydrolase activity	four	4.0	–
B3	enhanced cocaine hydrolase activity; also recorded: increased cocaine hydrolysis activity	–	–	cocaine hydrolysis activity compared to butyrylcholinesterase (in words) (listed as SEQ ID NO: 22): increased cocaine hydrolysis activity
B4	enhanced cocaine hydrolase activity	four	4.1	–
B5	enhanced cocaine hydrolase activity; also recorded: increased cocaine hydrolysis activity	–	–	cocaine hydrolysis activity compared to butyrylcholinesterase (in words) (listed as SEQ ID NO: 26): increased cocaine hydrolysis activity
B6	enhanced cocaine hydrolase activity; also recorded: increased cocaine hydrolysis activity	–	–	cocaine hydrolysis activity compared to butyrylcholinesterase (in words) (listed as SEQ ID NO: 24): increased cocaine hydrolysis activity
